Experiment: label from the status in PepcDB records
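Note: failed if final PepcDB status was selected cloned or expressed and not failed if soluble or beyond.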

Row | Sequence | protein production
1 | MSEKFDCHYCRDPLQGKKYVQKDGRHCCLKCFDKFCANTCVDCRKPISADAKEVHYKNRYWHDNCFRCAKCLHPLASETFVSKDGKILCNKCATREDSPRCKGCFKAIVAGDQNVEYKGTVWHKDCFTCSNCKQVIGTGSFFPKGEDFYCVTCHETKFAKHCVKCNKAITSGGITYQDQPWHAECFVCVTCSKKLAGQRFTAVEDQYYCVDCYKNFVAKKCAGCKNPITGKRTVSRVSHPVSKARKSPVCHGKRLPLTLFPSANLRGRHPGGERTCPSWVVVLYRKNRSLAAPRGPGLVKAPVWWPMKDNPGTTTASTAKNAP | failed
2 | MLLQPSRVRSGGRARWHAVQCAAAVTIGRDHPRHRYTRAMSSPLSCRLGCAACCIAPSISSPIPGMPNGKPAGVACVQLDAQLGCRLFGSPLRPAVCGNLRPSLEMCGTSRKQALSMLAALERATQP | failed
3 | MVEFELLRSLGIMLLAALGVVLVARTARVPNIVAYIGAGLLLGPALGVLTVTHTIELIAEFGIILLLFLVGLELSLDKIKAVGTTAFVAGGVQMGGTALGGGLLAGLVGVPVVEAVVVAVAIMFSSTVVVVKMLEKQSDLDAPYGQIAVGVLLVQDLVVVMVLTFVAGLAGPGELAWADVARGLGQAFVGMVLLGGLIAAAARYVLPPAIQWISRMTEGLFIWSLFWCFLVVLGAEALHLSPELGAFLAGIALAQLPQCHELRQRVHPLMNFFIIVFFVSLGLQMELGAALARWPLALALAAFVMVVKPLLFFGVLPRLGHGEETSFRTGLSLAQISEFSLIFGALALSSGLIDEALLSVITLVGLVTFALSSFLLLYSDRLYAAVKPYRPLAWLGARQEAPAPPPDGLQGHVIVVGLNTLGRCLVDRLTAAGETVVAVDTDPEKLARRSVSTVHGNAVHETTREAADWEDAKLVVSSLSIEGTNNLLAYHAQRAGVPCSIHAFDRTSENSLRTFGVDHLIRSKHEGARRLLDELKSRAVLS | failed
4 | MLTLAPCGRGPCAARGEGASRPVLTKSHSSSRLKPTSAGQHPGAGRGPLAWGMTEPVPVAPFPSVFGGVQQLRPDVFRVRLPLVNIFLMGVPGGDWVLVDTGMPGTAGLIRQAAAQVYGARAPQAIVLTHGHFDHIGALHALLAEWNVPVYAHPDELPHLTGEVPYRFPDPTVGGLMSLTSPLFLPGPYDFRPQVRTLPEDGTVPELPGWRWVHTPGHTEGHVSLWREADRLLIAGDAVVTTPQETVPGALASTPTVLRRPPAYYTPNWNATRDSVRTLAALRPALVATGHGHPLTDDSLGDALTRLADDFDHDPNGRPAHGWYLGHPAPMQKPRPGEPDPMRTLFLGALGAAGALWLLGRRRR | failed
5 | MSELILHHYPTSLFAEKARLMLGFKGVNWRSVTIPSIMPKPDLTALTGGYRKTPVLQIGADIYCDTALMARRLEQEKASPAFYPQGQEFAVAGLAAWADSVLFLHAVSLVFQPESMAVRFAKVPPDAAKAFIADRSMLFNGGTASRPPVEQVKHQWPTFMSRLESQLSHGGDFLFGAPSIADFSVAHTLWFLKQTPVTAPFVDDYPSVSVWLDRVLGFGHGSLSDLSSAAAIEIASNATPAPLPDETFIDPNGFKAGDKVAIAAVDYGVEAVEGELMFTGREELILRREDNRAGVVHVHFPRLGFRVEKR | not failed
6 | MDVSGQLNTETVGSSLRKIRSFSHYEKHDEVFHSDQSHIVVVHNGQLRVQTGDCTIDVVAGSGVFLSQGDYLLEYSPQGGNYHSSIIEFDNELVSQLLQKHSDLLMTLPKVDKLNSGLFSFGLNILIEQVLSGMKTLEEQSYPDAIMRLKYEEMLILLLHSQGGEVLYALLSQQTNRTSDRLRRFMEQHYLKEWKLTDYAQEFGASLTTFKELFNEHYGISPRAWISERRLLHAHKLLLTSKMSIVDVAMEAGFSSQSYFTQSYRRRFGTTPSKVRSGDEQVAIAN | failed
7 | MVRVPLTAEELERGQRLGELLRSARGDMSMVTVAFDAGISVETLRKIETGRIATPAFFTIAAVARVLDLSLDDVAAVVTFGPVSTS | not failed
8 | MTITNSKAEAWELIGNQFWTIGRVAARPSDRENDIFLENIVPGSTVAVIGASTRFLIEKALERGASVTVFDFSQRMCDDLAEALADRCVTIDLLDITAEIPKELAGHFDFVLNDRLINRFTTEEARRACLGMLSLVGSGTVRASVKLGFYDIDLKLIEYGEQSGTLAKFFDPSDKTFHFREAGDVLDRALVPHGLIDKPTLLEWYRRRGKETRFDDEDVRALLSHDVVNARGYVTLEKAVELPDAPNTMLYQFSRRAG | not failed
9 | MDPSRLLRTERERKAVMPPFSPGPLPIDPVLPALLEALASHGRAVLIAPPGAGKTTRVPPALLGALWLGGQKVVMLEPRRLATRAAARRMAFEAGEAVGQRFGFRVRGESRSGPLTRVEVMTEGILTRRIQDDPELAGVGCVILDEFHERGLQGDLAFALLREIQGALRPDLRLLVMSATLDGAAIAALMDDAPVIESHGRAFPVTITHGERPAARDLGPAMARTILRALEDEPGSVLAFLPGEREIAAVAGALARALPADTVLRPLYGALPPAEQDAAISPCPPGQRKVVLATDIAETSLTIEGVRIVVDSGLRRSPRFDPQTGLSRLDTVRISQAGAEQRRGRAGRLEPGVCLRLWPEAEHRALPAQETPEILAADLAPLALELARWGARDAAALCWPTPPPPGPLAQARDLLTSLGALEPAGGLSAHGAAMAALPLHPRLAHMVLAAKADGADDGALACLLAALLAERDILRPGPGAARDRDLTTRLEILIGQGRRAPAGQILRQPTLGAVRDEAARLRQLAGIAASASPEPARCGRVLARAYPDRIAQARPGQPGRFLLSSGRGALIDVGDPLAAAAFLAVAEVDGAGSEARVFLAAPLDRADLEELFDEALRPCETVTWDPRAEAVVARVERRLGALVFESRDLPDRADPARTTPAVCAGIRRLGLGCLPWTRETDRLRARVAFLHRVHSADDWPDLSDDALLASLADWLGPWLDGITRRSAFARIDLMAALKALIGWRRLADLDRLAPAQMDVPSGVKVALDYEVPDGPVLAARVQQLFGLTRTPAVLDGGHPVLVHLLSPAGRPLQVTRDLAGFWKGSYAEVRKDMRGRYPKHPWPEDPTGAEATNRVKPRGQ | failed
10 | MFFEIALIGTTASGKTYIANTLAREFNAVVLSLDSLCVYKEINIASAKPSQDDLASIKYFGVNLLSVNEHFNVELFIREYQKAKEFALARNLPLIIVGGTGFYLKTMIDGLSEKTLESKSSLNNDEIYALLLNIDPNYKIEKNDTYRLKKWLGIYEQTREIPSEFLKRTQKTGVLKDIEIYELAWDKEILKKRIKTRTKEMLDNGLLDEAKILFSKFDHKLKALNSIGLKECKEYLDGEISFKELENLITIHTTQLAKRQRTFNKKFQSKALEFDKALATLRMKFSIEKLEHHHHHH | failed
11 | RSSYVLPDKFVLSVPIQGNLDEVHSLSSSLPLLSSAEPLSFQDLLFLFDHAAGDKRIGSILLEIGGVHANPAKLTELRYSIEKMKASGKKVVAFLRSAEDSDYLLATACDSIVVEEGGFLMLDGLKAETLFYTKSLNKIGITFQASQWKTYKSGIEPFVRTGASSEYLEQIGELLDDVYDDYLGYASKRRGISRDSLQAVIDNMALLSAKKAVQLGLADGIASSWA | failed
12 | LETSWIKPGQASWEWWNDAAPYGPDVNFVSGYNLETYKYYIDFASKYGIRYIIMDEGWAKSTRDPYTPNAKVDVHELIRYAEKKNVGIVLWLTWLTVENNMDLFKTFSEWGVKGVKIDFMDRSDQWMMNFYERVAAEAAKYKLFVDFHGSVSPKGLEYKYPNVLSYEGVRGMEQMGGATPDNSIFMPFMRNAVGAMD | not failed
13 | MSLRKEPYLLVFGASVVDVFGFSKASYRPYNSTPGHVKISFGGVCRNIAENMARVGVNTNFMSILGNDEHGKSIVEHSKKIGYHMDDSMVIEGGSTPTYLAILDENGEMVSAIADMKSIGAMNTDFIDSKREIFENAEYTVLDSDNPEIMEYLLKNFKDKTNFILDPVSAEKASWVKHLIKDFHTIKPNRHEAEILAGFPITDTDDLIKASNYFLGLGIKKVFISLDADGIFYNDGVSCGKIKATEVDVKNVTGAGDSFVAGLGYGYMNKMPIEDIVKFAMTMSNITISHEETIHPDMALDTVLAKLEKTTWEEEKYDLNEGHHHHHH | not failed
14 | MSLTVVLIVDDHHLIRAGAKNLLEGAFSGMRVEGAETVSDALAFLEADNTVDLILLDVNLPDAEAIDGLVRLKRFDPSNAVALISGETDHELIRAALEAGADGFIPKSADPQVLIHAVSLILEGEIFLPRSYLQGGRMAEVATPLDEGHHHHHH | not failed
15 | MPEYSSVTGLEGVKFAPLKKENGFYVATKIIDYPYAINAKVNTETSTEKQYADNKLVDMAVTTGSTKLELEMRDLPMEILEELFGIEETDGIYMFKKNVIAPWVAMSFYGPKANGKNRHVGLVKGRFSLPDDEWKTKEEKTDFQTVKLSAEFMEREQDNAYKVLADEDAPNFNLDKFYEKVFGNAYKNPLEHHHHHH | not failed
16 | MHSQFAPRLRQLRWYEIVLIATVAAALCIYLPIVVKRSAVQGFGDVQVFFRAAWAVWTGYPLYQVADHHGWTYHYPPTFALLMGPFAHPLDGFPKPDWALSLPLSVATWYVFSAAAMLAAVDLWARGLERALPPSLDQADWSAWWLLRLGPVAALLPFFGDGLGRGQPSAVVLLTMVAFLVLYLRGRIYLAACALALGFTIKLFPLALLIFPVLRRDLRTVLATFGFSAVFLFVVPMLCLGPSEVVKLYGAMWTEHLSGIFTGVPNPKIADEITFTSYDMLSIGAMLARIAAGGLPETDTLPRFATICQLMFDAVVIGALLWLGHGRFWRLRGPQPPLGPSLLIGGALLCAALPVMLSVSQPNYVAFAAPLVALVQFEVWRRRGRVCVVPALIAWSGLMWLGMIATEGGAWQPLRVVGLVTPALIALLLWGFASLRRAAAPP | failed
17 | MTQLDTWLANTKPLIPVIVIDDLVHAIPMAKALVAGGVHLLEVTLRTEAGLAAISAIKKAVPEAIVGAGTVCTADDFQKAIDAGAQFIVSPGLTPELIEKAKQVKLDGQWQGVFLPGVATASEVMIAAQAGITQLKCFPASAIGGAKLLKAWSGPFPDIQFCPTGGISKDNYKEYLGLPNVICAGGSWLTESKLLIEGDWNEVTRRASEIVKLSDI | not failed
18 | MDFPCLWLGLLLPLVAALDFNYHRQEGMEAFLKTVAQNYSSVTHLHSIGKSVKGRNLWVLVVGRFPKEHRIGIPEFKYVANMHGDETVGRELLLHLIDYLVTSDGKDPEITNLINSTRIHIMPSMNPDGFEAVKKPDCYYSIGRENYNQYDLNRNFPDAFEYNNVSRQPETVAVMKWLKTETFVLSANLHGGALVASYPFDNGVQATGALYSRSLTPDDDVFQYLAHTYASRNPNMKKGDECKNKMNFPNGVTNGYSWYPLQGGMQDYNYIWAQCFEITLELSCCKYPREEKLPSFWNNNKASLIEYIKQVHLGVKGQVFDQNGNPLPNVIVEVQDRKHICPYRTNKYGEYYLLLLPGSYIINVTVPGHDPHITKVIIPEKSQNFSALKKDILLPFQGQLDSIPVSNPSCPMIPLYRNLPDHSAATKPSLFLFLVSLLHIFFK | not failed
19 | MMEDDGQPRTLYVGNLSRDVTEVLILQLFSQIGPCKSCKMITEHTSNDPYCFVEFYEHRDAAAALAAMNGRKILGKEVKVNWATTPSSQK | not failed
20 | MDFDLRWLFIAASLGLCAWAGWQFVHRLARARLLGDVPTSRIRSAAQGFVELYGVLEEGPEGPLQAPLTGKPCLWWRYRIEVEEKRSGREKAWRTVDKGASESPFSLRDATDACLVDPRGAEVRPLTQQRWEAFREAPIDTLRLLESFGTLVGGERLYRYTEERLHAGEPLYALGEFRSSGGGRQGLDAERAQGAVIREWKGDFHGLLARFDSDGNGELDEREWNRVRLAARLEAEDRHRASSAAPTRHRLGKPGEAHPFILSSQGEDDLAVQLRRQAAGAALLCLGSALLAGWLFSRLF | failed

From a protein production outcome set (Wang et al. 2014)
